Test: Pharmacokinetic study of CLDN18.2-linker conjugates (serum ELISA, NCA)
Assay type: in vivo, BALB/c mice
Settings: BALB/c mice, intravenous, about 1 mg/kg, serum, over 48 hours
Protocol: The in vivo pharmacokinetic profile of the CLDN18.2-linker conjugates was analyzed. Briefly, BALB/c mice were administered with the conjugates by intravenous injection at a dose of about 1 mg/kg. Then, whole blood of the animal was collected at different time points over 48 hours.
(§1) The whole blood was collected into a tube without anticoagulation and maintained at room temperature for more than 30 minutes, followed by centrifuge at approximately 5000 rpm at 4° C. for 5 minutes to obtain serum. Concentration of the conjugates in serum was then measured by ELISA using HRP-labeled goat anti-alpaca IgG VHH domain secondary antibody. The data was further analyzed using PK Solver software, and the […] (NCA) was used to evaluate the pharmacokinetic parameters, as shown in Table 7 and FIG. 2.

Molecule	AUCall [µg·h/mL]	Cl [L/h/kg]	T1/2 [min]	Vd [L/kg]
CLDN18.2-L007: Claudin 18.2 sdAb (SEQ ID NO. 1) conjugated with functional linker L007 (conjugate, functional linker L007 conjugated) VHH: EVQLVESGGGLVQPGGSLRLSCAASGSFFRIVAMGWYRQAPGSQRELVATITRGGSTYYADSVKGRFTISRDNAKNTLYLQMNSLRAEDTAVYYCNVRVEVPFMQPNDYWGQGTLVTVSS	33.1 ± 4.92	0.027 ± 0.003	361 ± 73.8	0.183 ± 0.014
CLDN18.2-L003: Claudin 18.2 sdAb (SEQ ID NO. 1) conjugated with functional linker L003 (conjugate, functional linker L003 conjugated) VHH: EVQLVESGGGLVQPGGSLRLSCAASGSFFRIVAMGWYRQAPGSQRELVATITRGGSTYYADSVKGRFTISRDNAKNTLYLQMNSLRAEDTAVYYCNVRVEVPFMQPNDYWGQGTLVTVSS	0.460 ± 0.077	1.81 ± 0.246	11.2 ± 1.56	0.431 ± 0.006
CLDN18.2-L005: Claudin 18.2 sdAb (SEQ ID NO. 1) conjugated with functional linker L005 (conjugate, functional linker L005 conjugated) VHH: EVQLVESGGGLVQPGGSLRLSCAASGSFFRIVAMGWYRQAPGSQRELVATITRGGSTYYADSVKGRFTISRDNAKNTLYLQMNSLRAEDTAVYYCNVRVEVPFMQPNDYWGQGTLVTVSS	0.881 ± 0.118	1.07 ± 0.120	13.4 ± 1.56	0.284 ± 0.017
CLDN18.2-L011: Claudin 18.2 sdAb (SEQ ID NO. 1) conjugated with functional linker L011 (conjugate, functional linker L011 conjugated) VHH: EVQLVESGGGLVQPGGSLRLSCAASGSFFRIVAMGWYRQAPGSQRELVATITRGGSTYYADSVKGRFTISRDNAKNTLYLQMNSLRAEDTAVYYCNVRVEVPFMQPNDYWGQGTLVTVSS	15.7 ± 0.816	0.057 ± 0.001	90 ± 10.1	0.106 ± 0.008
CLDN18.2-L012: Claudin 18.2 sdAb (SEQ ID NO. 1) conjugated with functional linker L012 (conjugate, functional linker L012 conjugated) VHH: EVQLVESGGGLVQPGGSLRLSCAASGSFFRIVAMGWYRQAPGSQRELVATITRGGSTYYADSVKGRFTISRDNAKNTLYLQMNSLRAEDTAVYYCNVRVEVPFMQPNDYWGQGTLVTVSS	2.22 ± 0.223	0.421 ± 0.042	17.3 ± 1.14	0.151 ± 0.025
CLDN18.2-L010: Claudin 18.2 sdAb (SEQ ID NO. 1) conjugated with functional linker L010 (conjugate, functional linker L010 conjugated) VHH: EVQLVESGGGLVQPGGSLRLSCAASGSFFRIVAMGWYRQAPGSQRELVATITRGGSTYYADSVKGRFTISRDNAKNTLYLQMNSLRAEDTAVYYCNVRVEVPFMQPNDYWGQGTLVTVSS	14.5 ± 0.149	0.061 ± 0.002	175 ± 7.02	0.199 ± 0.012
CLDN18.2-L009: Claudin 18.2 sdAb (SEQ ID NO. 1) conjugated with functional linker L009 (conjugate, functional linker L009 conjugated) VHH: EVQLVESGGGLVQPGGSLRLSCAASGSFFRIVAMGWYRQAPGSQRELVATITRGGSTYYADSVKGRFTISRDNAKNTLYLQMNSLRAEDTAVYYCNVRVEVPFMQPNDYWGQGTLVTVSS	148 ± 5.14	0.005 ± 0.000	1490 ± 323	0.166 ± 0.023
CLDN18.2-L006: Claudin 18.2 sdAb (SEQ ID NO. 1) conjugated with functional linker L006 (conjugate, functional linker L006 conjugated) VHH: EVQLVESGGGLVQPGGSLRLSCAASGSFFRIVAMGWYRQAPGSQRELVATITRGGSTYYADSVKGRFTISRDNAKNTLYLQMNSLRAEDTAVYYCNVRVEVPFMQPNDYWGQGTLVTVSS	0.650 ± 0.069	1.36 ± 0.132	13.5 ± 0.36	0.408 ± 0.026
CLDN18.2-DOTAGA: Claudin 18.2 sdAb (SEQ ID NO. 1) conjugated with DOTAGA, used as control for chelating imaging radioisotope (conjugate, DOTAGA chelator conjugated) VHH: EVQLVESGGGLVQPGGSLRLSCAASGSFFRIVAMGWYRQAPGSQRELVATITRGGSTYYADSVKGRFTISRDNAKNTLYLQMNSLRAEDTAVYYCNVRVEVPFMQPNDYWGQGTLVTVSS	1.45 ± 0.149	0.610 ± 0.072	32.9 ± 2.52	0.245 ± 0.032
CLDN18.2-L008: Claudin 18.2 sdAb (SEQ ID NO. 1) conjugated with functional linker L008 (conjugate, functional linker L008 conjugated) VHH: EVQLVESGGGLVQPGGSLRLSCAASGSFFRIVAMGWYRQAPGSQRELVATITRGGSTYYADSVKGRFTISRDNAKNTLYLQMNSLRAEDTAVYYCNVRVEVPFMQPNDYWGQGTLVTVSS	1.88 ± 0.177	0.439 ± 0.022	38.2 ± 4.02	0.375 ± 0.043

Same assay, conditions: FIG. 2; CLDN18.2 conjugate of the named linker compared to the control group

Molecule	blood circulation of the CLDN18.2 conjugates
Cc1ccc(CCCC(=O)NCCCCC(NC(=O)CNC(=O)CCC(C(=O)O)N2CCN(CC(=O)O)CCN(CC(=O)O)CCN(CC(=O)O)CC2)C(=O)NCc2ccc(N=C=S)cc2)cc1 (centres unmarked) [L010]	significantly prolonged blood circulation
CCCCCCCCCCCCC(=O)NCCCCC(NC(=O)CNC(=O)CCC(C(=O)O)N1CCN(CC(=O)O)CCN(CC(=O)O)CCN(CC(=O)O)CC1)C(=O)NCc1ccc(N=C=S)cc1 (centres unmarked) [L011]	significantly prolonged blood circulation

Test: Pharmacokinetic study of FAP-linker conjugates (serum ELISA, NCA)
Assay type: in vivo, BALB/c mice
Settings: BALB/c mice, intravenous, about 1 mg/kg, serum, over 48 hours
Protocol: he in vivo pharmacokinetic profile of the FAP-linker conjugates was analyzed. Briefly, BALB/c mice were administered with the conjugates by intravenous injection at a dose of about 1 mg/kg. Then, whole blood of the animal was collected at different time periods over 48 hours.
as §1, with “centrifugated” for “centrifuge”, “8” for “7”, “3.” for “2.”

Molecule	AUCall [µg·h/mL]	Cl [L/h/kg]	T1/2 [h]	Vd [L/kg]
FAP-DOTAGA: FAP sdAb (SEQ ID NO. 5) conjugated with DOTAGA, used as control for chelating imaging radioisotope (conjugate, DOTAGA chelator conjugated) VHH: QVQLLESGGGLVQPGGSLRLSCAASGFGFGNSLMSWVRRAPGKGLEWVSTIYPRGSFTDYADSVKGRFTISRDNSRNTLYLQMNSLRAEDTAVYYCATGWGRSSDYDPPGQGTLVTVSS	1.56 ± 0.088	0.642 ± 0.038	0.486 ± 0.002	0.315 ± 0.020
FAP-L007: FAP sdAb (SEQ ID NO. 5) conjugated with functional linker L007 (conjugate, functional linker L007 conjugated) VHH: QVQLLESGGGLVQPGGSLRLSCAASGFGFGNSLMSWVRRAPGKGLEWVSTIYPRGSFTDYADSVKGRFTISRDNSRNTLYLQMNSLRAEDTAVYYCATGWGRSSDYDPPGQGTLVTVSS	45.7 ± 3.23	0.022 ± 0.002	8.10 ± 0.114	0.206 ± 0.017
